Test results as given in the supplement of paper PMC9170038.

System: MS2 coat protein
Assay: apparent KD of MS2 coat protein; designed switch direction (-1 OFF switch, 1 ON switch): -1; higher = weaker reporter binding
Summary of the method: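 The reported apparent KD is a per-design median over clusters, from curve fits of normalised cluster fluorescence. Protein titrations used SNAP-549-labelled MS2 coat protein, doubled from 0.7 or 1.5 nM to 3 µM, in Tris-HCl pH 7.5 buffer with KCl, MgCl2, BSA, DTT, tRNA and Tween-20, with no input, 200 uM small-molecule ligand, or an oligonucleotide input. The RNA switches were transcribed on Illumina chips by stalled E. coli RNA polymerase.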

[1] = Eterna round: R95, input ligand: FMN 200 uM
[2] = Eterna round: R95, input ligand: microRNA oligo, concentration not stated
[3] = Eterna round: R95, input ligand: none
[4] = input ligand: microRNA oligo, concentration not stated

Sequence | apparent KD of MS2 coat protein [1] [µM] | apparent KD of MS2 coat protein [2] [µM] | apparent KD of MS2 coat protein [3] [µM] | apparent KD of MS2 coat protein [4] [µM] | apparent KD of MS2 coat protein (input ligand: FMN 200 uM) [µM] | apparent KD of MS2 coat protein (input ligand: none) [µM]
GAAAAGGUAGGAUAUACGAAAAAAAAGGGUAGAAAAAAAACACAUGAGGAUCACCCAUGUAGAAGGACCAAGAG [salish99_ex2_r3_039] (puzzle: Exclusion 2) | 0.0617 | 0.0243 | 0.0319 |  |  | 
GAAAAGGUAGGAUAUACGAAAUAAAAGGGUAGAAAAAAAACACAUGAGGAUCACCCAUGUAGAAGGACCAAAAG [salish99_ex2_r3_084] (puzzle: Exclusion 2) | 0.0529 | 0.0155 | 0.0347 |  |  | 
GAAAAGGUAGGAUAUACGAUAAAAAAGGGUAGAAAAAAAACACAUGAGGAUCACCCAUGUAGAAGGACCAAAAG [salish99_ex2_r3_086] (puzzle: Exclusion 2) | 0.0952 | 0.0207 | 0.03 |  |  | 
GAAAAGGUAGGAUAUACGAUAAGAAAGGGUAGAUAAUAAACACAUGAGGAUCACCCAUGUAGAAGGACCAAAAG [salish99_ex2_r3_102] (puzzle: Exclusion 2) | 0.139 | 0.0354 | 0.0397 |  |  | 
GAAAAGUCAGGAUAUGCAGAUAAAAAAACGAAAAAAAAUCUGCAGAAGGGACAUGAGGAUCACCCAUGUAAAAG [Mat - Exclusion 4 - Mayanna - D110] (Eterna round: R96, puzzle: Exclusion 4) |  |  |  | 0.0291 |  | 
GAAAGCUUUGAGCUCGAUCACAUGAGGAUCACCCAUGUGGGAGCCAGGCGACGGCAUUCUGCGAGGGCGACUUUUGG [Eternabot (L2) Solution 42] (Eterna round: R97, puzzle: Sensor, turn-off variant 1) |  |  |  |  | 0.0178 | 0.0154
GAACGUGGUGAGGAUAUCCGGUCUAACGUGCCAGGAGAAGGCGCCACAUGAGGAUCACCCAUGUGGGUCCCGCC [EX6 B.9] (Eterna round: R97, puzzle: Exclusion 6) |  |  |  |  | 0.026 | 0.0149
GAAGGGCGUCUAGGAUAUAGUAUACGGCGAACAUGAGGAUCACCCAUGUGUCCGAAUGCGGCGAGCUAGAAGGAGAAUUCGCCC [Enuseszave] (Eterna round: R96, puzzle: Exclusion NG 2) |  |  |  | 0.0334 | 0.0724 | 0.0491
GAAUAGCGAGGAUAUACAUGAGGAUCACCCAUGUGAUCCUUAGGCUGUUCAAGCCAAUGUAGAAGGCGCAAAUU [jl-ex3.4.58 ViennaUCT mod] (Eterna round: R97, puzzle: Exclusion 3) |  |  |  |  | 0.0766 | 0.129
GAAUUAAUUAAUUAAUAAUACAUGAGGAUCACCCAUGUAGAUCCUACAUACAAUUUAAGUAGCUCGUCUUAUAAUUA [Stov1/1-A2] (Eterna round: R97, puzzle: Sensor, turn-off variant 1) |  |  |  |  | 0.108 | 0.202
GACACUCAUGUAAGUAUUUACAUGAGGAUCACCCAUGUACCACUAGAAGACUAGGGAACGAAACGAGCUGGCUGUCA [Eternabot (Original) Solution 6] (Eterna round: R97, puzzle: Sensor, turn-off variant 1) |  |  |  |  | 1.29 | 0.567
GACAGCAUGCAGGAUAUACCUCCUCUGCGGACGGUAGAAGGGCGUACAUGAGGAUCACCCAUGUCACCCAUUUC [Eternabot (L2) Solution 61] (Eterna round: R97, puzzle: Exclusion 6) |  |  |  |  | 0.0139 | 0.0144
GACAUACAUGAGGAUCACCCAUGUAAGGAUAUACGCAGUAGACUCCGAGGGACCUGAAGUAGAAGGUACAGGGU [Eternabot (L2) Solution 72] (Eterna round: R97, puzzle: Exclusion 1) |  |  |  |  | 0.103 | 0.0345
GACCCACAUGAGGAUCACCCAUGUGAGGAUAUCAUGCUUCGUAGUAAACUACGAAGUGUGAGAAGGCACAAUGG [Omei Ex1 C7] (Eterna round: R97, puzzle: Exclusion 1) |  |  |  |  | 0.134 | 0.0374
GACCGGACGUGGUCAGGUAACAUGAGGAUCACCCAUGUAGGUCUAAGAACAAGCCUUUUGUACGCUCGUCUUAUAUU [JR_SV3TOV1_Sub060] (puzzle: Sensor v3, turn-off variant 1) | 0.0461 | 0.0468 | 0.0558 |  |  | 
GACCGGACGUGGUCAGGUAACAUGAGGAUCACCCAUGUAGGUCUAGGAACAAGCUUUUUGAAAGCUCGUCUUAUAAA [JR_SV3TOV1_Sub058] (puzzle: Sensor v3, turn-off variant 1) | 0.0567 | 0.0336 | 0.0693 |  |  | 
GACCUACAUGAGGAUCACCCAUGUGAGGAUAUAUUGUUAUUUAUAAUAUUUUUUAGUGGUAGAAGGCGCGUGAU [JR_Exc1_Sub018] (Eterna round: R97, puzzle: Exclusion 1) |  |  |  |  | 0.0179 | 0.0202

Sequence | apparent KD of MS2 coat protein [1] [µM] | apparent KD of MS2 coat protein [2] [µM] | apparent KD of MS2 coat protein [3] [µM] | apparent KD of MS2 coat protein [4] [µM] | apparent KD of MS2 coat protein (input ligand: FMN 200 uM) [µM] | apparent KD of MS2 coat protein (input ligand: none) [µM]
GACCUAUAGGUAGGAUAUCAUUGCGAUUAGCUAUGAGAAGGACCACAUGAGGAUCACCCAUGUCCUCCAAUUAACCAUUUGGUC [Fiskers ExNg1 - 4] (Eterna round: R96, puzzle: Exclusion NG 1) |  |  |  | 0.0696 | 0.239 | 0.0867
GACCUCACUGUAGGAUAUGACCGAUCCAGAGGAUCAGAAGGACAUGAGGAUCACCCAUGUGCGUGGAGGGAACGUAAGAAACAA [Eternabot solution 2] (Eterna round: R96, puzzle: Exclusion NG 1) |  |  |  | 0.0294 | 0.323 | 0.0529
GACCUCAGUCAGGAUAUAGAUAGCGAUAGCGAAUUAGAAGGGACCACAUGAGGAUCACCCAUGUUAGUAUCAUU [Eternabot (L2) Solution 10] (Eterna round: R97, puzzle: Exclusion 6) |  |  |  |  | 0.0389 | 0.0342
GACCUCCCUGUAAGGAUAUCCAUGCAUCAAAGCAAGGAGAAGGUACAUGAGGAUCACCCAUGUCACCCGCGUUA (Eterna round: R97, puzzle: Brourd's mod of Exclusion 4) |  |  |  |  | 0.0231 | 0.0154
GACCUCCCUGUAAGGAUAUCCAUGCAUCAAAGCAUGGAGAAGGUACAUGAGGAUCACCCAUGUCACCCGCGUUA (Eterna round: R97, puzzle: Brourd's mod of Exclusion 4) |  |  |  |  | 0.0207 | 0.015
GACUCACAUGAGGAUCACCCAUGUUAGGAUAUAACCUCAUCAACAACGAUUUGGGAGGUUAGAAGGGAUGAUGG [Eternabot (L1) Solution 80] (Eterna round: R97, puzzle: Exclusion 1) |  |  |  |  | 0.11 | 0.089
GAGAAACAUGAGGAUCACCCAUGUGAGGAUAUGAAAAAGAAAAGAAAAGAAAGAAGAAUCAGAAGGCACAAAGC [salish99-ex1_r3_091] (puzzle: Exclusion 1) | 0.0231 | 0.0324 | 0.03 |  |  | 
GAGAACUGAGGAUAUACAUGAGGAUCACCCAUGUUAAGAAGAAAGUAUAAAAGAUUAUGUAGAAGGCAGAGAGA [JR_Ex3_Sub068] (Eterna round: R97, puzzle: Exclusion 3) |  |  |  |  | 0.0298 | 0.0333
GAGAAGGUAGGAUAUACGAAUAAAUAGGGUAGUAAUAAUACACAUGAGGAUCACCCAUGUAGAAGGACCAAUAG [Mat - Exclusion 2 - Mod of my Tesla design - D40] (puzzle: Exclusion 2) | 0.0425 | 0.0208 | 0.0249 |  |  | 
GAGGAACAUGAGGAUCACCCAUGUGAGGAUAUGCAUAGCGAGGUAGUAGAAGUUGAAUGCAGAAGGUACACGGA [JR_Exclu1_Sub076] (puzzle: Exclusion 1) |  | 0.0275 |  |  |  | 
GAGGAACAUGAGGAUCACCCAUGUGAGGAUAUGCAUAGUGAGGUAGUAGACGUUGAAUGCAGAAGGUACACUGA [JR_Exclu1_Sub078] (puzzle: Exclusion 1) |  | 0.0357 |  |  |  | 
GAGUCACAUGAGGAUCACCCAUGUGAGGAUAUCAUGCUUCGUAGUAAACUACGAAGUGUGAGAAGGCACAAUGG [Omei Ex1 C8] (Eterna round: R97, puzzle: Exclusion 1) |  |  |  |  | 0.126 | 0.0686
GAGUCCUUGGUGAGGAUAUGGCGAGGAGCACUUGUCCAGAAGGCACAUGAGGAUCACCCAUGUUCUAGUAAUUG [Eternabot (L2) Solution 75] (Eterna round: R97, puzzle: Brourd's mod of Exclusion 4) |  |  |  |  | 0.0772 | 0.0302
GAGUGACAUGAGGAUCACCCAUGUGAGGAUAUCGGACGGACCAAAUUAACAACAACCGCGAGAAGGCACAUCGG [Exclusion 1 V20] (puzzle: Exclusion 1) |  | 0.112 |  |  |  | 
GAGUGACAUGAGGAUCACCCAUGUGAGGAUAUCGGACGGACCAAAUUAACAACCACCGCGAGAAGGCACAUCGG [Exclusion 1 V21] (puzzle: Exclusion 1) | 0.0584 | 0.0989 | 0.107 |  |  | 
GAGUGGUGAGGAUAUACAUGAGGAUCACCCAUGUGCUUCAGCUAGGAGACUAGCAUUGGUAGAAGGCAUUACUC [Mod of lroppy 8 - Jieux - Exclusion 3] (Eterna round: R97, puzzle: Exclusion 3) |  |  |  |  | 0.102 | 0.0336
GAGUUAACAUGAGGAAUAUACAUGAGGAUCACCCAUGUUAACAAAACUUUUGCUCGUCUUAUAACAACAAUUAACUC [Alarm 2 - Jieux - Sensor, turn-off variant 1] (Eterna round: R97, puzzle: Sensor, turn-off variant 1) |  |  |  |  | 0.347 | 0.133
